Patent publication US20140112930A1 (published 2014)
Positions count from the first letter of the chain named.

T1: Monomeric hAng-2FD (human, UniProt O15123 282-496)
T1 construct: also called fibrinogen-like domain of human Ang2; Human Ang-2FD
T1 sequence: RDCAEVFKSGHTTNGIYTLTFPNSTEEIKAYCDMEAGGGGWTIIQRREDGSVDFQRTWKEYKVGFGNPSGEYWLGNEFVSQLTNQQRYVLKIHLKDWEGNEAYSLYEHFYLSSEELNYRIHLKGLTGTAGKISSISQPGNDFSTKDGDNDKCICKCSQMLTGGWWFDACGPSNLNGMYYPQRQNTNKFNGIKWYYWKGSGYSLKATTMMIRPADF

T2: wild-type human Ang-2 (hAng-2-WT) (human, UniProt O15123 19-496)
T2 construct: called full-length wild-type; also called Full-length wild-type human Ang-2
T2 sequence: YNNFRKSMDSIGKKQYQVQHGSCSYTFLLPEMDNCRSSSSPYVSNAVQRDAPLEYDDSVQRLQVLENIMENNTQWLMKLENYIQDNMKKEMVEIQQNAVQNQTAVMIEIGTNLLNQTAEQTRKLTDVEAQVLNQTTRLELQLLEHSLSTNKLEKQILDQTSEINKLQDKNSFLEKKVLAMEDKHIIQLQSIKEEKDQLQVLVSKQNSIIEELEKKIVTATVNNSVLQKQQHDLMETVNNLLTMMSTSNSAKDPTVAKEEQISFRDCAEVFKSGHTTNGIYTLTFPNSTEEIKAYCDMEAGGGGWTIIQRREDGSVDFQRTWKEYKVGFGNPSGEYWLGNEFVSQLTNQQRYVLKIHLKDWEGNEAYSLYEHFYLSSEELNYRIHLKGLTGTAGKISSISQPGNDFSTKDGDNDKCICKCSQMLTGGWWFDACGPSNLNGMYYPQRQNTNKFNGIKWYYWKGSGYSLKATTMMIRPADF

B1: H1H750N (antibody, V domains shown)
VH: QVKLVESGGGVVQPGRSLRVSCAASGFTFSSYGMHWVRQAPGKGLEWLAIIWYDGDNKYYSDSVKGRFTISRDNSKNTLYLQMNSLRAEDTAEYYCVRDASIASRFLDYWGQGTLVTVSS
VL: DIQMTQSPSSLSASIGDRVTITCRATQDINNYLAWFQQKPGKAPKSLIYATSNLQSGVPSKFSGSGSGTDYTLTISSLQPEDFSTYYCQQYHSYPLTFGGGTKVEIK
B2: H1H696P (antibody, V domains shown)
VH: QVQLVESGGGLVKPGGSLRLSCAASGFTFSDYYMSWIRQAPGKGLEWVSYISYTGRTIYYADSVKGRFTISRDNAKNSLYLQMNSLRAEDTAVYYCARDTDYGDFFDYWGQGTLVTVSS
VL: B1 VL with I15V, T26S, D28G, N30S, T51A, N53S, Y71F, S84A, H92N
B3: H1H695P (antibody, V domains shown)
VH: QVQLVESGGGVVQPGRSLRLSCAASGFTFSSYGMHWVRQAPGKGLEWVAVMWYDETNKYYADSVKGRFTISRDNSKNTLYLQMNSLRAEDTAVYYCARYSGYEDYYHGMDVWGQGTTVTVS
VL: EIVMTQSPATPSVSPGERATLSCRASQSISSNLAWYQQKPGQAPRLLIYGASTRATGIPARFSGSGSGTEFTLTISSLQSEDFAVYYCQHYNNWITFGQGTRLEIK
B4: H1H690P (antibody, V domains shown)
VH: EVQLVESGGGLVQPGESLRLSCAASGFTFSSYAMSWVRQGPGKGLEWVSSITGSGDTTYYADSVKGRFTISRDNSKNTLYLHMNSLRAEDTAVYYCAKDFLDYSTYLAFDLWGQGTMVTVSS
VL: EIVLTQSPATLSLSPGERATLSCRASQSVSSYLTWYQQKPGQAPRLLSYDASNRATGIPARFSGSGSGTDFTLTISSLEPEDFAVYYCQQRSNWPLTFGGGTKVEIK
B5: H1H693P (antibody, V domains shown)
VH: B4 VH with T52S, D56G, K65E
VL: DIQMTQSPSSVSASVGDRVTITCRASQGISSWLAWYQQKPGKAPKLLIYAASSLQSGVPSRFSGSGSGTDFTLTISSLQPEDFATYYCQQANSFPRTFGQGTKVEIK
B6: H2M730N (antibody, V domains shown)
VH: EVQLVESGGGLVQPGGSLRLSCAASGFAFRSYWMTWVRQAPGKGLEWVANIQQDGNDKYYVDSVKGRFTISRDNAKNSLYLQMNSLRAEDTAVYYCARDTGIAEAGPFDYWGQGTLVTVSS
VL: DIQMTQSPSTLSASVGDRVSITCRASQTIISWLAWYQQKPGKAPRLLIYKASSLESGVPSRFSGSGSGTEFTLTINSLQPDDFATYYCQQYNRYWTFGQGTKVEIK
B7: H2M750N (antibody, V domains shown)
VH: B1 VH
VL: B1 VL
B8: H1M724N (antibody, V domains shown)
VH: QVQLVESGGGVVQPGRSLRLSCAASGFTLSNYGMHWVRQAPGKGLEWVAVIWHDGSNTYYADSVKGRFTISRDNSKNTLYLQMNSLRAEDTAVYYCTREGLDFWSGYYPNWFDPWGQGTLVTVSS
VL: DIQMTQSPSSLSASVGDRVTITCRASQGIRNDLGWYQQKPGKAPKRLIYAASNLQGGVPSRFSGSGSGTEFTLTISSLQPEDFAAYYCLQHNIYPLTFGGGTKVEIK
B9: H1H685P (antibody, human IgG1, V domains shown)
VH: EVQLVESGGGLVQPGGSLRLSCAASGFTFSSYDIHWVRQATGKGLEWVSAIGPAGDTYYPGSVKGRFTISRENAKNSLYLQMNSLRAGDTAVYYCARGLITFGGLIAPFDYWGQGTLVTVSS
VL: EIVLTQSPGTLSLSPGERATLSCRASQSVSSTYLAWYQQKPGQAPRLLIYGASSRATGIPDRFSGSGSGTDFTLTISRLEPEDFAVYYCQHYDNSQTFGQGTKVEIK
notes: Fully human antibody, human IgG1

What follows are binders tested against T3, human bow-Ang-2 tetrameric construct (hBA2) (human) (assay: SPR, captured Ab).
T3 construct: also called human BA2; hBA2-hIgG1
B1 showed a Kd of 36.9 pM and a T1/2 of 284 min. Work on B2 yielded a Kd of 111 pM and a T1/2 of 51.5 min. B3 gave a Kd of 40.1 pM and a T1/2 of 254 min. For B4, the Kd was 17.9 pM and the T1/2 was 299 min. For B5, the Kd was 299 pM and the T1/2 was 28.7 min.

The binders below were run against T1, Monomeric hAng-2FD (assay: SPR, captured Ab).
B6 was tested, and the Kd was 2060 pM and the T1/2 was 24.4 min. B1 was tested, and the Kd was 787 pM and the T1/2 was 30.2 min. In the case of B2, the Kd is reported as 38400 pM and the T1/2 is reported as 0.2 min. For B7, the Kd was 4420 pM and the T1/2 was 21.5 min. B3 gave a Kd of 1120 pM. Work on B8 yielded a Kd of 1750 pM and a T1/2 of 17.4 min. B4 gave a Kd of 594 pM and a T1/2 of 25.2 min. With B5 the Kd was 44800 pM and the T1/2 was 0.61 min.

Each binder was assayed against T2, wild-type human Ang-2 (hAng-2-WT) (assay: SPR, captured Ab).
B6 showed a Kd of 49.2 pM and a T1/2 of 8.65 h. Binder B1 has a Kd of 9.5 pM and a T1/2 of 74 h. B2 showed a Kd of 40.3 pM and a T1/2 of 10.7 h. Binder B7 has a Kd of 40.8 pM and a T1/2 of 16.5 h. B3 gave a Kd of 31.1 pM and a T1/2 of 29.5 h. B8 gave a Kd of 33.1 pM and a T1/2 of 9.47 h. Binder B4 has a Kd of 12.4 pM and a T1/2 of 26.1 h. B5 showed a Kd of 425 pM and a T1/2 of 1.67 h.

What follows are binders tested against T4, Dimeric Human Ang-2FD conjugated to human IgG1 (human) (assay: SPR, captured Ab, RT).
T4 construct: also called Human Ang-2FD-hFc; hAng-2FD-hFc
Method: (§1) Antibody was captured on a goat anti-mouse IgG polyclonal antibody surface, a goat anti-human κ polyclonal antibody (Southern Biotech, Birmingham, Ala.) surface or a goat anti-human IgG polyclonal antibody (Jackson Immuno Research Lab, West Grove, Pa.) surface created through direct amine coupling to a BIACORE™ CM5 sensor chip to form a captured antibody surface. […] Antigen-antibody binding and dissociation were monitored in real time at room temperature. Kinetic analysis was performed to calculate KD and half-life of antigen/antibody complex dissociation.
Work on B6 yielded a Kd of 210 pM and a T1/2 of 47 min. Binder B1 has a Kd of 164 pM and a T1/2 of 127 min. Binder B2 has a Kd of 289 pM and a T1/2 of 38.8 min. With B7 the Kd was 362 pM and the T1/2 was 32.2 min. For B3, the Kd was 245 pM and the T1/2 was 147 min. B8 gave a Kd of 179 pM and a T1/2 of 42.7 min. With B4 the Kd was 79 pM and the T1/2 was 126 min. With B5 the Kd was 500 pM and the T1/2 was 37.1 min.

The binders below were run against T5, Dimeric Mouse Ang-2FD conjugated to human IgG1 (mouse (Mus musculus); human) (assay: SPR, captured Ab, RT).
T5 construct: also called Mouse Ang-2FD-hFc
Method: as §1
B1 gave a Kd of 218 pM and a T1/2 of 121 min. For B2, the Kd was 402 pM and the T1/2 was 37.6 min. Binder B3 has a Kd of 347 pM and a T1/2 of 124 min. Work on B8 yielded a Kd of 694 pM and a T1/2 of 16 min. Binder B4 has a Kd of 91.3 pM and a T1/2 of 105 min. Binder B5 has a Kd of 446 pM and a T1/2 of 63.7 min.

What follows are binders tested against T6, Dimeric Monkey Ang-2FD conjugated to human IgG1 (monkey (Macca fascicularis); human) (assay: SPR, captured Ab, RT).
T6 construct: also called Monkey Ang-2FD-hFc
Method: as §1
Binder B6 has a Kd of 842 pM and a T1/2 of 36.6 min. Binder B1 has a Kd of 199 pM and a T1/2 of 244 min. Binder B2 has a Kd of 354 pM and a T1/2 of 36.6 min. With B7 the Kd was 1470 pM and the T1/2 was 23 min. B3 gave a Kd of 440 pM and a T1/2 of 84.1 min. Binder B8 has a Kd of 730 pM and a T1/2 of 25.7 min. B4 showed a Kd of 55.6 pM and a T1/2 of 195 min. B5 was tested, and the Kd was 1170 pM and the T1/2 was 17.6 min.

These binders were tested against T4, Dimeric Human Ang-2FD conjugated to … (assay: competition ELISA, 16.67 nM Ab, coated hTie-2-mFc).
Method: (§2) The plate was then blocked with PBS (Irvine Scientific, Santa Ana, Calif.) containing 0.5% BSA (Sigma-Aldrich Corp., St. Louis, Mo.) for one hour at room temperature. […] Human, mouse or monkey Ang-2FD protein conjugated to human IgG (Ang-2FD-hFc) were added to final concentrations of 2 nM, 8 nM, or 2 nM respectively and incubated for one hour at room temperature. The antibody/Ang-2FD-Fc mixture was then added to the plate containing hTie-2-mFc and incubated for one hour at room temperature. Detection of Ang-2FD-hFc bound to hTie-2-mFc protein was determined with Horse-Radish Peroxidase (HRP) conjugated to a-human IgG antibody (Jackson Immuno Research Lab, West Grove, Pa.) and developed by standard colorimetric response using tetramethylbenzidine (TMB) substrate (BD Biosciences, San Jose, Calif.). Absorbance was read at OD₄₅₀ for 0.1 sec.
For B6, the “Percent Blocking of Ang-2FD Binding to Tie-2” value (shortened to “Percent Blocking”) was 98.9%. For B7, the “Percent Blocking” value was 99.4%. For B8, the “Percent Blocking” value was 99.5%.

Each binder was assayed against T5, Dimeric Mouse Ang-2FD conjugated to … (assay: competition ELISA, 16.67 nM Ab, coated hTie-2-mFc).
Method: as §2
In the case of B6, the “Percent Blocking” value is reported as 55%. B7 was tested, and the “Percent Blocking” value was 53.7%. In the case of B8, the “Percent Blocking” value is reported as 96.6%.

The binders below were run against T6, Dimeric Monkey Ang-2FD conjugated to … (assay: competition ELISA, 16.67 nM Ab, coated hTie-2-mFc).
Method: as §2
B6 was tested, and the “Percent Blocking” value was 97.3%. In the case of B7, the “Percent Blocking” value is reported as 97.4%. With B8 the “Percent Blocking” value was 95.2%.

What follows are binders tested against T7, Mouse Ang-2FD-hFc (mouse (Mus musculus)) (assay: blocking ELISA, 16.67 nM antibody, Ang-2FD-hFc to coated hTie-2-mFc).
T7 construct: also called dimeric mouse Ang-2FD
Method: as §2
With B9 the “Percent Blocking” value was 97.1%.
